# Assay results taken from the RNAGym collection of RNA variant scans (doi:10.7554/elife.80360).
# B1: CPEB3 Ribozyme (parent)
# chain: GGGGGCCACAGCAGAAGCGUUCACGUCGCGGCCCCUGUCAGAUUCUGGUGAAUCUGCGAAUUCUGCUGU
# Variants of: B1
# Assay: self-cleavage, relative activity (ratio to wild type); higher = more cleavage; co-transcriptional
row,Variant,self-cleavage
1,GGGGGCCACAGCAGAAGCGUUCACGUCACGGCCCCUGUCAGAUUCUGGUGAAUCUGCGAAUUCAGCUGU [G28A U64A],0.245
2,GGGGGCCACAGCAGAAGCGUUCACGUCACGGCCCCUGUCAGAUGCUGGUGAAUCUGCGAAUUCUGCUGU [G28A U44G],0.136
3,GGGGGCCACAGCAGAAGCGUUCACGUCACGGCCCCUGUCAGAUACUGGUGAAUCUGCGAAUUCUGCUGU [G28A U44A],0.195
4,GGGGGCCACAGCAGAAGCGUUCACGUCACGGCCCCUGUCAGAUCCUGGUGAAUCUGCGAAUUCUGCUGU [G28A U44C],0.176
5,GGGGGCCACAGCAGAAGCGUUCACGUCACGGCCCCUGGCAGAUUCUGGUGAAUCUGCGAAUUCUGCUGU [G28A U38G],0.147
6,GGGGGCCACAGCAGAAGCGUUCACGUCACGGCCCCUGCCAGAUUCUGGUGAAUCUGCGAAUUCUGCUGU [G28A U38C],0.196
7,GGGGGCCACAGCAGAAGCGUUCACGUCACGGCCCCUGUCAGAUUCUGGUGAAUCUGCGAACUCUGCUGU [G28A U61C],0.137
8,GGGGGCCACAGCAGAAGCGUUCACGUCACGGCCCCUGUCAGAUUCUGGUGAAUCUGCGAAAUCUGCUGU [G28A U61A],0.193
9,GGGGGCCACAGCAGAAGCGUUCACGUCACGGCCCCUGUCAGAUUCUGGUGAAUCUGCGAAUUCUGCCGU [G28A U67C],0.307
10,GGGGGCCACAGCAGAAGCGUUCACGUCACGGCCCCUGUCAGAUUCUGGUGAAUCUGCGAAUUCUGCAGU [G28A U67A],0.202
11,GGGGGCCACAGCAGAAGCGUUCACGUCACGGCCCCUGUCAGAUUCUGGUGAAUCUGCGAAUUCUGCGGU [G28A U67G],0.232
12,GGGGGCCACAGCAGAAGCGUUCACGUCACGGCCCCUGUCAGAUUCAGGUGAAUCUGCGAAUUCUGCUGU [G28A U46A],0.184
13,GGGGGCCACAGCAGAAGCGUUCACGUCACGGCCCCUGUCAGAUUCGGGUGAAUCUGCGAAUUCUGCUGU [G28A U46G],0.146
14,GGGGGCCACAGCAGAAGCGUUCACGUCACGGCCCCUGUCAGAUUCCGGUGAAUCUGCGAAUUCUGCUGU [G28A U46C],0.192
15,GGGGGCCACAGCAGAAGCGUUCACGUCACGGCCCCGGUCAGAUUCUGGUGAAUCUGCGAAUUCUGCUGU [G28A U36G],0.133
16,GGGGGCCACAGCAGAAGCGUUCACGUCACGGCCCCUGUCAGAUUCUGGUGAAUCUGCGAAUACUGCUGU [G28A U62A],0.203
17,GGGGGCCACAGCAGAAGCGUUCACGUCACGGCCCCUGUCAGAUUCUGGUGAAUCUGCGAAUCCUGCUGU [G28A U62C],0.218
18,GGGGGCCACAGCAGAAGCGUUCACGUCCCGGCCCCUGUCUGAUUCUGGUGAAUCUGCGAAUUCUGCUGU [G28C A40U],0.215
19,GGGGGCCACAGCAGAAGCGUUCACGUCCCGGCCCCUGUCCGAUUCUGGUGAAUCUGCGAAUUCUGCUGU [G28C A40C],0.218
20,GGGGGCCACAGCAGAAGCGUUCACGUCCCGGCCCCUGUCGGAUUCUGGUGAAUCUGCGAAUUCUGCUGU [G28C A40G],0.211

row,Variant,self-cleavage
1,GGGGGCCACAGCAGAAGCGUUCACGUCCCGGCCCCUGUCAGAUUCUGGUGAAUCUGCGUAUUCUGCUGU [G28C A59U],0.189
2,GGGGGCCACAGCAGAAGCGUUCACGUCCCGGCCCCUGUCAGAUUCUGGUGAAUCUGCGCAUUCUGCUGU [G28C A59C],0.16
3,GGGGGCCACAGCAGAAGCGUUCACGUCCCGGCCCCUGUCAGAUUCUGGUGAAUCUGCGGAUUCUGCUGU [G28C A59G],0.132
4,GGGGGCCACAGCAGAAGCGUUCACGUCCCGGCCCCUGUCAGUUUCUGGUGAAUCUGCGAAUUCUGCUGU [G28C A42U],0.25
5,GGGGGCCACAGCAGAAGCGUUCACGUCACGGCCCCUGUCAGAUUCUGGGGAAUCUGCGAAUUCUGCUGU [G28A U49G],0.22
6,GGGGGCCACAGCAGAAGCGUUCACGUCACGGCCCCUGUCAGAUUCUGGCGAAUCUGCGAAUUCUGCUGU [G28A U49C],0.238
7,GGGGGCCACAGCAGAAGCGUUCACGUCCCGGCCCCUGUCAGAUUCUGGUGGAUCUGCGAAUUCUGCUGU [G28C A51G],0.247
8,GGGGGCCACAGCAGAAGCGUUCACGUCCCGGCCCCUGUCAGAUUCUGGUGCAUCUGCGAAUUCUGCUGU [G28C A51C],0.119
9,GGGGGCCACAGCAGAAGCGUUCACGUCCCGGCCCCUGUCAGAUUCUGGUGUAUCUGCGAAUUCUGCUGU [G28C A51U],0.165
10,GGGGGCCACAGCAGAAGCGUUCACGUCACGGCCCCUGUCAGAUUCUGGUGAAGCUGCGAAUUCUGCUGU [G28A U53G],0.203
11,GGGGGCCACAGCAGAAGCGUUCACGUCACGGCCCCUGUCAGAUUCUGGUGAACCUGCGAAUUCUGCUGU [G28A U53C],0.154
12,GGGGGCCACAGCAGAAGCGUUCACGUCACGGCCCCUGUCAGAUUCUGGUGAAUCUGCGAAUUCUGCUGG [G28A U69G],0.357
13,GGGGGCCACAGCAGAAGCGUUCACGUCACGGCCCCUGUCAGAUUCUGGUGAAUCUGCGAAUUCUGCUGA [G28A U69A],0.342
14,GGGGGCCACAGCAGAAGCGUUCACGUCACGGCCCCUGUCAGAUUCUGGUGAAUCUGCGAAUUCUGCUGC [G28A U69C],0.412
15,GGGGGCCACAGCAGAAGCGUUCACGUCACGGCCCCUGUCAGAUUCUGGUGAAUCCGCGAAUUCUGCUGU [G28A U55C],0.214
16,GGGGGCCACAGCAGAAGCGUUCACGUCACGGCCCCUGUCAGAAUCUGGUGAAUCUGCGAAUUCUGCUGU [G28A U43A],0.156
17,GGGGGCCACAGCAGAAGCGUUCACGUCACGGCCCCUGUCAGACUCUGGUGAAUCUGCGAAUUCUGCUGU [G28A U43C],0.219
18,GGGGGCCACAGCAGAAGCGUUCACGUCACGGCCCCUGUCAGAGUCUGGUGAAUCUGCGAAUUCUGCUGU [G28A U43G],0.0959
19,GGGGGCCACAGCAGAAGCGUUCACGUCCCGGCCCCUGUCAGAUUCUGGUGAUUCUGCGAAUUCUGCUGU [G28C A52U],0.197
